Sequences and labels used below:
B1: IAB22C-3 (other)
scFv: DVQITQSPSSLSASVGDRVTITCRTSRSISQYLAWYQQKPGKVPKLLIYSGSTLQSGVPSRFSGSGSGTDFTLTISSLQPEDVATYYCQQHNENPLTFGGGTKVEIKSGGGGEVQLVESGGGLVQPGGSLRLSCAASGFNIKDTYIHFVRQAPGKGLEWIGRIDPANDNTLYASKFQGKATISADTSKNTAYLQMNSLRAEDTAVYYCGRGYGYYVFDHWGQGTLVTVSSGGCPPCPPC
notes: Cys-diabody (scFv dimer); also called anti-CD8 Cys-diabody, 3 Cys (CPPCPPC)
B2: IAB22C-2 (other)
scFv: DVQITQSPSSLSASVGDRVTITCRTSRSISQYLAWYQQKPGKVPKLLIYSGSTLQSGVPSRFSGSGSGTDFTLTISSLQPEDVATYYCQQHNENPLTFGGGTKVEIKSGGGGEVQLVESGGGLVQPGGSLRLSCAASGFNIKDTYIHFVRQAPGKGLEWIGRIDPANDNTLYASKFQGKATISADTSKNTAYLQMNSLRAEDTAVYYCGRGYGYYVFDHWGQGTLVTVSSGGCPPC
notes: Cys-diabody (scFv dimer); also called anti-CD8 Cys-diabody, 2 Cys (CPPC)
B3: IAB22C-1 (other)
scFv: DVQITQSPSSLSASVGDRVTITCRTSRSISQYLAWYQQKPGKVPKLLIYSGSTLQSGVPSRFSGSGSGTDFTLTISSLQPEDVATYYCQQHNENPLTFGGGTKVEIKGGGSGGGGEVQLVESGGGLVQPGGSLRLSCAASGFNIKDTYIHFVRQAPGKGLEWIGRIDPANDNTLYASKFQGKATISADTSKNTAYLQMNSLRAEDTAVYYCGRGYGYYVFDHWGQGTLVTVSSGGC
notes: Cys-diabody (scFv dimer); also called anti-CD8 Cys-diabody, 1 Cys (GGC)

This assay deals with T1, CD8 expressed on the surface of HPB-ALL cells (UniProt P01732 22-235).
T1 construct: whole, on cells
T1 sequence (P01732 22-235): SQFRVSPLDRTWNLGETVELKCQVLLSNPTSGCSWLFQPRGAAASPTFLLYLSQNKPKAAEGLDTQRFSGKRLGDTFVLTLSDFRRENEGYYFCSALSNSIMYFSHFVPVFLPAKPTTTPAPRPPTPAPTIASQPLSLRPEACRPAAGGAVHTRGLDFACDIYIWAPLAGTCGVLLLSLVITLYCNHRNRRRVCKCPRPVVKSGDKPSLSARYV
Put plainly: flow cytometry on HPB-ALL cells, MFI against concentration, four-parameter fit. As to the method: The cells were centrifuged at 400 rpm for 5 minutes, re-suspended in 200 uL of cell staining buffer (1% BSA in phosphate buffer saline, 0.09% sodium azide). Data were acquired on the Attune Acoustic Focusing Cytometer (Applied Biosystems, Foster City, Calif.) (FIG. 9A) and Mean Fluorescent Intensity (MFI) values were plotted against concentration for each sample (FIG. 9B). Best fit binding curves and IC₅₀ values were generated with four-parameter logistic nonlinear regression using GraphPad Prism version 6 for Windows (GraphPad Software, La Jolla, Calif.). and binding assessed on an Attune acoustic focusing cytometer (Applied Biosystems) (Table 4.3).
What is called EC50 is the concentration at which the effect is half-maximal. A high value points to weaker potency. B1 yielded an EC50 of 0.13 nM. B2 returned an EC50 of 0.15 nM. The molecule B3 came in with an EC50 of 0.08 nM.
